The values that follow come from PMC10786891, “Massively parallel profiling of RNA-targeting CRISPR-Cas13d”.

Where a chain is given by its changes, count along the chain named. Names and notes keep the numbering of the source.

To fix the notation:
B1: target 1 insA 3' of 11,insU 3' of 1 (mixed)
RNA 1: CACCCGUGCAAAAAUGCAGGGGUCUAAAACUGAGCGGAUAACCUCUCUAUGG
RNA 2: GGGAAUGGAUCCACAUCUACGAAUUCGUACCAUAGAGAGGUAUAUCCGCUCAUCCGAGAUCGGAAGAGCACACGU
B2: target 1 C4G,C21A (mixed)
RNA 1: B1 RNA 1
RNA 2: GGGAAUGGAUCCACAUCUACGAAUUCGUACAAUAGAGAGGUUAUCCGGUCACCGAGAUCGGAAGAGCACACGU
B3: target 1 C2G,U3C (mixed)
RNA 1: B1 RNA 1
RNA 2: B2 RNA 2 with A31C, G48C, U49C, C50G
B4: target 1 A1U,C2A (mixed)
RNA 1: B1 RNA 1
RNA 2: B2 RNA 2 with A31C, G48C, C50A, A51U
B5: target 1 A20C (mixed)
RNA 1: B1 RNA 1
RNA 2: B2 RNA 2 with A31C, A32C, G48C
B6: target 1 insC 3' of 14,insG 3' of 4 (mixed)
RNA 1: B1 RNA 1
RNA 2: B1 RNA 2 with G39C, U41G, A42U, U50G, C51U, A52C, U53A
B7: target 1 G17U,U19G (mixed)
RNA 1: B1 RNA 1
RNA 2: B2 RNA 2 with A31C, U33G, G35U, G48C
B8: target 1 U10A,U11A (mixed)
RNA 1: B1 RNA 1
RNA 2: B2 RNA 2 with A31C, U41A, U42A, G48C
B9: target 1 insU 3' of 20,insC 3' of 18 (mixed)
RNA 1: B1 RNA 1
RNA 2: GGGAAUGGAUCCACAUCUACGAAUUCGUACCAUUACGAGAGGUUAUCCGCUCACCGAGAUCGGAAGAGCACACGU
B10: target 1 insC 3' of 15,insA 3' of 10 (mixed)
RNA 1: B1 RNA 1
RNA 2: B9 RNA 2 with U34A, A35G, C36A, A38C, G39A, A40G, G42U, U44A
B11: target 1 complement block 1-7 (mixed)
RNA 1: B1 RNA 1
RNA 2: B2 RNA 2 with A31C, C45G, C46G, G47C, U49A, C50G, A51U
B12: target 1 insG 3' of 3,insG 3' of 2 (mixed)
RNA 1: B1 RNA 1
RNA 2: GGGAAUGGAUCCACAUCUACGAAUUCGUACCAUAGAGAGGUUAUCCGCUGCGACCGAGAUCGGAAGAGCACACGU
B13: target 1 insC 3' of 16,insC 3' of 1 (mixed)
RNA 1: B1 RNA 1
RNA 2: B1 RNA 2 with G37C, A38G, G39A, U41G, A42U, U53C
B14: target 1 U3G,G5U (mixed)
RNA 1: B1 RNA 1
RNA 2: B2 RNA 2 with A31C, G47U, G48C, U49G
B15: target 1 U11A,G13U (mixed)
RNA 1: B1 RNA 1
RNA 2: B2 RNA 2 with A31C, G39U, U41A, G48C
B16: target 1 insC 3' of 10,insG 3' of 9 (mixed)
RNA 1: B1 RNA 1
RNA 2: B12 RNA 2 with A43C, U44A, C45G, C46U, G47C, U49G, G50C, C51U, G52C

The target in this data set is T1, EsCas13d, nuclease-dead (Eubacterium siraeum, UniProt B0MS50, R295A;H300A;R849A;H854A).
T1 sequence: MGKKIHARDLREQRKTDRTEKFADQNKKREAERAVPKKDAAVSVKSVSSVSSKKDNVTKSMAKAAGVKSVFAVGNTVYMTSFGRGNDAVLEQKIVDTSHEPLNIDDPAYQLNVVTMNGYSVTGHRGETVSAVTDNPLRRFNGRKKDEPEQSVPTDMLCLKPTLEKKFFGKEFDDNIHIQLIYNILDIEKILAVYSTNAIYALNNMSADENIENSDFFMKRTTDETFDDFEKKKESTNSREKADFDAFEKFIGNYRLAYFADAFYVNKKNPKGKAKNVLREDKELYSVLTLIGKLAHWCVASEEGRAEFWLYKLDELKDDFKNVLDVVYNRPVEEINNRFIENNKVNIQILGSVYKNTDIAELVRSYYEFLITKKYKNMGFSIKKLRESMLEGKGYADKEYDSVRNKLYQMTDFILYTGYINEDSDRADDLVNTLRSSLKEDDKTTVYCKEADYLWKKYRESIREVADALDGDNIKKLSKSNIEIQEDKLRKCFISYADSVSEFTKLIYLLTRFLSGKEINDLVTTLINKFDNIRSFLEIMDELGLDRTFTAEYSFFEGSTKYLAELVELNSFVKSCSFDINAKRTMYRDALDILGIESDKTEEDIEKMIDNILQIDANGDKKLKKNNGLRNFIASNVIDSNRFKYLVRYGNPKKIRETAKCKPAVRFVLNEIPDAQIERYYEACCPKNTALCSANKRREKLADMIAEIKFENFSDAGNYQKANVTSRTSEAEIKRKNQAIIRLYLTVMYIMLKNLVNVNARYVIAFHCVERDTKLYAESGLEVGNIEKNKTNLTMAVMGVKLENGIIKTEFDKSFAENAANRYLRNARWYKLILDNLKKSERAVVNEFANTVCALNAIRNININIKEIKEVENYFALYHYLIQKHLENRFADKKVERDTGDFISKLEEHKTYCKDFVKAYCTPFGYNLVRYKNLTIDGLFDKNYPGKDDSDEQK
Description: crRNA (strand 1, pre-loaded); Mg2+; 40 mM Tris-HCl pH 7.5, 150 mM NaCl, 6 mM MgCl2, 1 mM DTT, 0.1% Tween-20, 0.2 mg/ml BSA; 25 C; 10 min per concentration, then washed. The conditions noted are these: tags: His6-TwinStrep-SUMO cleaved; N-terminal SNAP kept (SNAP-Surface 488); label: 3' end held by stalled T7 RNA polymerase.
The molecule B1 came in with a Kd of 19 ± 1.3 nM.
The same measure for B2: 25.5 ± 2.8 nM; for B3: 8.6 ± 0.7 nM; for B4: 8.4 ± 0.7 nM.
Take B5: the Kd came to 34.2 ± 2.5 nM.
As for B6, the figure is 21 ± 1.2 nM.
As for B7, the figure is 80 ± 40 nM.
As for B8, the figure is 11.8 ± 0.4 nM; as for B9, 36 ± 4 nM; as for B10, 65 ± 11 nM.
Consider B11, for which the Kd is 23.9 ± 2.4 nM.
As to B12, binding was characterised by a dissociation constant (Kd) of 6.2 ± 0.4 nM.
As for B13, the equilibrium dissociation constant (Kd) was 77 ± 32 nM.
As for B14, the figure is 14.1 ± 0.5 nM; as for B15, 34.2 ± 2.2 nM.
The same measure for B16: 17.1 ± 1 nM.
